We go through five molecules from paper PMC7608827 (Science Advances, 2020).

What is called stoichiometry N is a count of units in the complex or per binding partner.

Where two headings read alike, the source gives them in different places.

B1: CaCohA2, cohesin module of Clostridium acetobutylicum (domain or fragment, UniProt Q977Y4 611-759, looked up)
chain: VKNETVKLSVGTVSGNPGDTVKVPVTISQVSTPVGLICMDISYDASKFTVKDVLPNTDLVKDTDNYSFIVNTSTPGKISITFTDPTLANYPISVDGILAYLDFIINSNATAGDSALTVDPATLIVADENDKDIKDAASNGKITVTGSAP
B2: CaDoc0917, dockerin module of Clostridium acetobutylicum (domain or fragment, UniProt Q97KK2 477-537, looked up)
chain: NTILGDLNDDGVVNGRDIVMMRQYLAGKTVSGIDKNALDINGDGAVNGRDLMELIKKVSNN

Common to all, as to assay: ITC
In test [1] the target is CaDoc0917(R16D) (Clostridium acetobutylicum).
For test [2], the target named is CaDoc0917(R49D) (Clostridium acetobutylicum).
The target of test [3] is CaDoc0917(R16D) (Clostridium acetobutylicum). The source holds these as a separate data set.
The target of test [4] is CaDoc0917(R49D) (Clostridium acetobutylicum). This is another data set of the same source.
For test [5], the target named is B2.
The target of test [6] is CaDoc0917(R49D/R22I) (Clostridium acetobutylicum).
Test [7] has as its target CaDoc0917(R16D/I55R) (Clostridium acetobutylicum).
Test [8] deals with CaDoc0917(R16D/M52V) (Clostridium acetobutylicum).
Test [9] has as its target CaDoc0917(R49D/V19M) (Clostridium acetobutylicum).
Test [10] addresses CaDoc0917(R49D/R22I) (Clostridium acetobutylicum). This is another data set of the same source.
Test [11] concerns the target CaDoc0917(R16D/I55R) (Clostridium acetobutylicum). This is another data set of the same source.
For test [12], the target named is CaDoc0917(R16D/M52V) (Clostridium acetobutylicum). This is another data set of the same source.
The target in test [13] is CaDoc0917(R16DE53Q) (Clostridium acetobutylicum).
Test [14] concerns the target CaDoc0917(R49D/V19M) (Clostridium acetobutylicum). The source holds these as a separate data set.
The target in test [15] is B2. This is another data set of the same source.
In test [16] the target is B2. The source holds these as a separate data set.
The target in test [17] is B1.
For test [18], the target named is B1. The source holds these as a separate data set.
Test [19] concerns the target B1. This is another data set of the same source.

In the case of CaCohA2 E128Q (domain or fragment), the Ka in test [1] came to 2.2e+07 M⁻¹; in test [2] it was 2.1e+07 M⁻¹; in test [3] it was 120000 M⁻¹; in [4] it was 1.57e+06 M⁻¹.

As for “CaCohA2 E128Q/D130N (domain or fragment)”, the Ka in test [1] is 3.6e+06 M⁻¹; in test [2], 1.1e+07 M⁻¹; in test [3] it was 460000 M⁻¹; in test [4] it was 2.32e+06 M⁻¹.

For CaCohA2 D130N (domain or fragment), the Ka worked out at 2.1e+07 M⁻¹ in [2], 320000 M⁻¹ in [3] and 4.24e+06 M⁻¹ in test [4].

On to B1, for which the results for the dH in [5], in test [15] and in test [16] were -4.67 ± 0.03 kcal/mol, -7.37 ± 0.04 kcal/mol and -9.54 ± 0.13 kcal/mol, respectively. Also, the “stoichiometry N” value in [5] is 0.862 ± 0.003; in test [15], 0.95 ± 0.002; in test [16] it was 1.09 ± 0.011. The Ka stood at 1.03e+08 M⁻¹ in [1]; 2.1e+07 M⁻¹ in test [6]; 1.32e+08 M⁻¹ in [7]; 2.9e+07 M⁻¹ in test [8]; 4.3e+07 M⁻¹ in test [2]; 5.15e+08 M⁻¹ in test [9]. Also, the Ka in [3] was determined as 170000 M⁻¹; in [10] it was 180000 M⁻¹; in test [11], 1.04e+06 M⁻¹; in test [12], 290000 M⁻¹; in test [4] it was 1.39e+06 M⁻¹; in test [13] it was 1.93e+06 M⁻¹. This molecule also gave a Ka in [14] of 1.98e+06 M⁻¹.

Take B2: the Ka in test [17] came to 2.4e+07 M⁻¹; in [18] it was 1.48e+08 M⁻¹; in [19], 1.8e+06 M⁻¹.
